Results on 11 molecules are retold here after patent US20210275686A1, “BINDER/ACTIVE AGENT CONJUGATES DIRECTED AGAINST CXCR5, HAVING ENZYMATICALLY CLEAVABLE LINKERS AND IMPROVED ACTIVITY PROFILE” (BAYER AKTIENGESELLSCHAFT, priority 2018, published 2021).

First the molecules themselves.
B1: TPP-14495 (antibody, human IgG1, lambda, V domains shown)
VH: EVQLLESGGGLVQPGGSLRLSCAASGFTFSNYWMSWVRQAPGKGLEWVSAISGSGGSTRYADSVKGRFTISRDNSKNTLYLQMNSLRAEDTAVYYCTTQRRELGATNWGQGTLVTVSS
VL: QSVLTQPPSASGTPGQRVTISCTGSSSNIGAGYVVHWYQQLPGTAPKLLIYSNNQRPSGVPDRFSGSKSGTSASLAISGLRSEDEADYYCQSYDSSLSGVVFGGGTKLTVLG
modifications: CypHer 5E fluorescent dye coupled to lysine residues (positions not stated)
B2: TPP-14514 (antibody, human IgG1, lambda, V domains shown)
VH: EVQLLESGGGLVQPGGSLRLSCAASGFTFSNNWMSWVRQAPGKGLEWVSAISGSGGSTYYADSVKGRFTISRDNSKNTLYLQMNSLRAEDTAVYYCTVQRRELGATNWGQGTLVTVSS
VL: QSVLTQPPSASGTPGQRVTISCTGSSSNIGAGYVVHWYQQLPGTAPKLLIYSNNQRPSGVPDRFSGSKSGTSASLAISGLRSEDEADYYCQSYDSSLSGVVFGGGTKLTVLG
modifications: CypHer 5E fluorescent dye coupled to lysine residues (positions not stated)
B3: TPP-14511 (antibody, human IgG1, lambda, V domains shown)
VH: EVQLLESGGGLVQPGGSLRLSCAASGFTFSNYWMSWVRQAPGKGLEWVSAISGSGGTTYYADSVKGRFTISRDNSKNTLYLQMNSLRAEDTAVYYCTTQRRELGATNWGQGTLVTVSS
VL: QSVLTQPPSASGTPGQRVTISCTGSSSNIGAGYVVHWYQQLPGTAPKLLIYSNNQRPSGVPDRFSGSKSGTSASLAISGLRSEDEADYYCQSYDSSLSGVVFGGGTKLTVLG
modifications: CypHer 5E fluorescent dye coupled to lysine residues (positions not stated)
B4: TPP-14505 (antibody, human IgG1, lambda, V domains shown)
VH: EVQLLESGGGLVQPGGSLRLSCAASGFTFSNNWMSWVRQAPGKGLEWVSAISGSGGSTYYADSVKGRFTISRDNSKNTLYLQMNSLRAEDTAVYYCNVQRRELGATNWGQGTLVTVSS
VL: QSVLTQPPSASGTPGQRVTISCTGSSSNIGAGYVVHWYQQLPGTAPKLLIYSNNQRPSGVPDRFSGSKSGTSASLAISGLRSEDEADYYCQSYDSSLSGVVFGGGTKLTVLG
modifications: CypHer 5E fluorescent dye coupled to lysine residues (positions not stated)
B5: TPP-10063 (antibody, human IgG1, lambda, V domains shown)
VH: EVQLLESGGGLVQPGGSLRLSCAASGFTFSNYWMSWVRQAPGKGLEWVSAISGSGGSTYYADSVKGRFTISRDNSKNTLYLQMNSLRAEDTAVYYCTTLRRELGATNWGQGTLVTVSS
VL: QSVLTQPPSASGTPGQRVTISCTGSSSNIGAGYVVHWYQQLPGTAPKLLIYSNNQRPSGVPDRFSGSKSGTSASLAISGLRSEDEADYYCQSYDSSLSGVVFGGGTKLTVLG
modifications: CypHer 5E fluorescent dye coupled to lysine residues (positions not stated)
B6: TPP-14509 (antibody, human IgG1, lambda, V domains shown)
VH: EVQLLESGGGLVQPGGSLRLSCAASGFTFSNYWMSWVRQAPGKGLEWVSAISGSGGSTYYADSVKGRFTISRDNSKNTLYLQMNSLRAEDTAVYYCTVQRRELGATNWGQGTLVTVSS
VL: QSVLTQPPSASGTPGQRVTISCTGSSSNIGAGYVVHWYQQLPGTAPKLLIYSNNQRPSGVPDRFSGSKSGTSASLAISGLRSEDEADYYCQSYDSSLSGVVFGGGTKLTVLG
modifications: CypHer 5E fluorescent dye coupled to lysine residues (positions not stated)
B7: TPP-14499 (antibody, human IgG1, lambda, V domains shown)
VH: EVQLLESGGGLVQPGGSLRLSCAASGFTFSNYWGSWVRQAPGKGLEWVSAISGSGGSTYYADSVKGRFTISRDNSKNTLYLQMNSLRAEDTAVYYCTVLRRELGATNWGQGTLVTVSS
VL: QSVLTQPPSASGTPGQRVTISCTGSSSNIGAGYVVHWYQQLPGTAPKLLIYSNNQRPSGVPDRFSGSKSGTSASLAISGLRSEDEADYYCQSYDSSLSGVVFGGGTKLTVLG
modifications: CypHer 5E fluorescent dye coupled to lysine residues (positions not stated)
B8: 40C01 (antibody, human IgG1, kappa, V domains shown)
VH: EVQLLESGGGLVQPGGSLRLSCAASGFTFSRYVMVWVRQAPGKGLEWVSGISPSGGVTRYAASVKGRFTISRDNSKNTLYLQMNSLRAEDTAVYYCARIRKEMTTISYFFDYWGQGTLVTVSS
VL: DIQMTQSPSSLSASVGDRVTITCRASQGVDAYVAWYQQKPGKVPKLLIYSTSTLASGVPSRFSGSGSGTDFTLTISSLQPEDVATYYCQSHNAAVVTFGQGTRLEIKR
modifications: CypHer 5E fluorescent dye coupled to lysine residues (positions not stated)

The first data set deals with T1, CXCR5 (CD185; SwissProt: P32302; NCBI reference sequence: NP_001707.1) (human, UniProt P32302 1-372).
T1 sequence: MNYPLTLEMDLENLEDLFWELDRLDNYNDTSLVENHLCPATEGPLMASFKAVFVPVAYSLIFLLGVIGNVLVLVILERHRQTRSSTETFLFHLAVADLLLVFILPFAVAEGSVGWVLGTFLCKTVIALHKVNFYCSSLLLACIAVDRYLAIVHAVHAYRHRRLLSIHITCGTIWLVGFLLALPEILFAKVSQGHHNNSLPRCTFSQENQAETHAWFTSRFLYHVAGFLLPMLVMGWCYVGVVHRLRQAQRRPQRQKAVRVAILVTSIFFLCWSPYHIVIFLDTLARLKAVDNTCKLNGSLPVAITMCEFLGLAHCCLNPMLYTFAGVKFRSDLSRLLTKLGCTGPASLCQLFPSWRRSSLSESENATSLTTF
Briefly: cell-based or functional assay.
Details: not given
Regarding B1, the “Internalization Rec-1 [MFI]” value was 84 MFI and the “Internalization SU-DHL-6 [MFI]” value is 12 MFI.
With B2, the “Internalization Rec-1 [MFI]” value is 134 MFI and the “Internalization SU-DHL-6 [MFI]” value is 53 MFI.
B3: the “Internalization Rec-1 [MFI]” value stood at 99 MFI and the “Internalization SU-DHL-6 [MFI]” value turned out to be 24 MFI.
On to B4, for which the “Internalization Rec-1 [MFI]” value worked out at 135 MFI and the “Internalization SU-DHL-6 [MFI]” value stood at 61 MFI.
As for B5, the “Internalization Rec-1 [MFI]” value is 65 MFI and the “Internalization SU-DHL-6 [MFI]” value is 22 MFI.
For the molecule B6, the “Internalization Rec-1 [MFI]” value stood at 129 MFI and the “Internalization SU-DHL-6 [MFI]” value worked out at 51 MFI.
With B7, the “Internalization Rec-1 [MFI]” value was 122 MFI and the “Internalization SU-DHL-6 [MFI]” value is 55 MFI.
For B8, in that order: 49 MFI and 13 MFI.

In the next data set the target is T2, legumain (Homo sapiens, UniProt Q99538).
T2 construct: purchased R&D Systems 2199-CY
T2 sequence (Q99538 26-323 limits assumed): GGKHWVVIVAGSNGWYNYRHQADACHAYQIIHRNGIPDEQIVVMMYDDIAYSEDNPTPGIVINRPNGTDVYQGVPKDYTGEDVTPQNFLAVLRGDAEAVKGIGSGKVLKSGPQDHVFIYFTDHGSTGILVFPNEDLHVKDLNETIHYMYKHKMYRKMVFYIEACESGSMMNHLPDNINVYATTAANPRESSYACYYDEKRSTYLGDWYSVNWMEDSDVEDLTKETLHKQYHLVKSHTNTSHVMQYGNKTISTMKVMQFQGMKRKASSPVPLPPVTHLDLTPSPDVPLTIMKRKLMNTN
Briefly: Legumain assay. The class given is biochemical. Particulars: recombinant human legumain (rhlegumain), 3 μM substrate, pH 5.0, read-out: half-life of legumain-mediated cleavage (converted). As for the experimental part:
The legumain assay was performed with recombinant human enzyme. The rhlegumain enzyme solution (Catalog #2199-CY, R&D Systems) was diluted to the desired concentration in 50 mM Na acetate buffer/100 mM NaCl, pH4.0, and preincubated for 2 h at 37° C. The rhlegumain was then adjusted to a final concentration of […] in 50 mM MES buffer, 250 mM NaCl, pH 5.0. For each legumain-cleavable prodrug to be investigated, a reaction mixture was made up in a micro-reaction vessel (0.5 ml, Eppendorf). For this, the substrate solution was adjusted with 50 mM MES buffer, 250 mM NaCl, pH 5.0 to the desired concentration (2-fold concentration). For the kinetic measurement of the enzymatic reaction, first 250 μL of the legumain solution was taken and the enzymatic reaction was started by adding 250 μL of the substrate solution (final concentration, single concentration; 3 μM). Samples of 50 μL each were taken at various times. Immediately, 100 μL ice-cold methanol was added to the sample to stop the enzymatic reaction and then frozen at −20° C. The selected sampling times were after 0.5 h, 1 h, 3 h and 24 h. The samples were then examined by RP-HPLC analysis and by LC-MS. The determination of the toxophore released enabled the determination of the half-time t1/2 of the enzymatic reaction.
On to `CNC(=O)[C@H](CCN(C(=O)CO)[C@@H](c1cc(-c2cc(F)ccc2F)cn1Cc1ccccc1)C(C)(C)C)NC(=O)[C@H](CC(N)=O)NC(=O)[C@H](C)N(C)C(=O)[C@H](C)NC(=O)Cc1ccncc1` [Model Compound A], for which the half-life (as a rule, the time in which the quantity being followed falls by half) at 3 µM was 30 min.

Another data set has as its target CXCR5 (CD185; SwissProt: P32302; NCBI reference sequence: NP_001707.1) (human) (UniProt P32302). Nature of the data set: cell-based or functional assay.
Details: not given
In turn, Isotype control (antibody) displayed an Internalization Rec-1 [MFI] of 2 MFI and an Internalization SU-DHL-6 [MFI] of 1 MFI.

Another data set deals with Rec-1: human mantle cell lymphoma cells. Briefly: Cytotoxic activity, CTG assay, Rec-1. It counts as cell-based. The settings on record: Rec1, metabolites. As for the experimental part: (§1) The culturing of the cells is performed according to the standard method, as specified at the American Tissue Culture Collection (ATCC) or the Leibniz-Institut DSMZ-Deutsche Sammlung von Mikroorganismen and Zellkulturen GmbH (DSMZ) for the respective cell lines.
The cells were cultured using the standard method, with the growth media specified under C-1. To perform the test, the suspended cells were counted and seeded in a 96-well culture plate with a white background (Perkin Elmer, NO 10775584) (at 75 μL/well; the resulting cell numbers per well are: Rec-1: 3000 cells/well, HBL-1 and Oci-Ly-1: 6000 cells/well) and incubated in an incubator at 37° C. and 5% carbon dioxide. […] In a parallel plate, the cell vitality was determined at the beginning of the active agent treatment (day 0) with the Cell Titer Glow (CTG) Luminescent Cell Viability Assay (Promega #G7573 and #G7571). For this purpose, 100 μL of the substrate were added per cell batch; then the plates were covered with aluminum foil, shaken for 2 minutes at 180 rpm with the plate shaker, allowed to stand for 8 minutes on the laboratory bench and then measured with a luminometer (Victor X2, Perkin Elmer). The substrate detected the ATP content in the living cells, generating a luminescence signal whose height is directly proportional to the vitality of the cells. […]
`CC(C)(C)[C@H](c1cc(-c2cc(F)ccc2F)cn1Cc1ccccc1)N(CC[C@H](N)C(=O)NCCC(=O)N[C@H](CCC(=O)O)C(=O)O)C(=O)CO` [Example M1, N-{(2S)-2-Amino-4-[{(1R)-1-[1-benzyl-4-(2,5-difluorophenyl)-1H-pyrrol-2-yl]-2,2-dimethylpropyl}(glycoloyl)amino]butanoyl}-beta-alanyl-D-glutamic acid]: the 50% inhibitory concentration (IC50) – broadly, the concentration that inhibits the measured activity by half – came out at 309 nM.

Another data set shares this test system. Briefly: Cytotoxic activity, MTT assay, Rec-1. The class given is cell-based. Particulars: Rec1, metabolites, 96 h. As for the experimental part:
as §1
The culturing of the cells was performed according to the standard method with the growth media specified under C-1. For execution, the cells were separated with a solution of Accutase in PBS (Biochrom AG #L2143), pelleted, resuspended in culture medium, counted and seeded on a 96-well culture plate with a white background (Costar #3610) (NCI H292: 2500 cells/well; in 100 μL total volume). Then the cells were incubated in an incubator at 37° C. and 5% carbon dioxide. After 48 h a change of medium was performed. […] The cells in the suspension were counted and seeded into a 96-well culture plate with white background (Costar #3610) (#3610) (Rec-1: 3000 cells/well at a total volume of 100 μL). […] After 96 h the cell proliferation was detected using the MTT assay (ATCC, Manassas, Va., USA, Catalog No. 30-1010K). […] The color formed was detected at 570 nm (Infinite M1000 pro, Tecan). Based on the measured data the IC50 of the growth inhibition was calculated using the DRC (dose-response curve). […]
On the technique in general: Tetrazolium assays rely on reduction of a dye to a coloured formazan, in cell work by metabolically active cells.
For the molecule `CC(C)(C)[C@H](c1cc(-c2cc(F)ccc2F)cn1Cc1ccccc1)N(CC[C@H](N)C(=O)NCCC(=O)N[C@H](CCC(=O)O)C(=O)O)C(=O)CO` [Example M1, N-{(2S)-2-Amino-4-[{(1R)-1-[1-benzyl-4-(2,5-difluorophenyl)-1H-pyrrol-2-yl]-2,2-dimethylpropyl}(glycoloyl)amino]butanoyl}-beta-alanyl-D-glutamic acid], the IC50 is 387 nM.
